The values that follow come from publication PMC8744557, “Engineering the Catalytic Properties of Two-Domain Laccase from Streptomyces griseoflavus Ac-993” (International Journal of Molecular Sciences, 2021).

Substrate in data set [1]: CCn1c(=NN=c2sc3cc(S(=O)(=O)O)ccc3n2CC)sc2cc(S(=O)(=O)O)ccc21
Description: purified protein. The format is biochemical, Streptomyces griseoflavus. The settings on record: 50 mM Britton-Robinson buffer, O2 co-substrate.

Substrate in data set [2]: COc1cccc(OC)c1O
As to the kind of experiment: purified protein. Format: biochemical, Streptomyces griseoflavus. The following applies: 50 mM Britton-Robinson buffer, O2 co-substrate.

Numbering of substitutions follows the chain as printed. In names and notes the source's numbering stands.

B1: SgfSL (SgfSLwt) (Streptomyces griseoflavus) (protein)
chain: AGAAPAGGEVRRVTMYAERLAGGQMGYGLEKGKASIPGPLIELNEGDTLHVEFENTMDVPVSLHVHGLDYEISSDGTKQNKSHVEPGGTRTYTWRTHEPGRRADGTWRAGSAGYWHYHDHVVGTEHGTGGIRNGLYGPVIVRRKGDVLPDATHTIVFNDMTINNRPAHTGPNFEATVGDRVEIVMITHGEYYHTFHMHGHRWADNRTGMLTGPDDPSQVIDNKICGPADSFGFQIIAGEGVGAGAWMYHCHVQSHSDMGMVGLFLVKKPDGTIPGYDPQEHAH
notes: pET32-Xa/Lic, thioredoxin/His tail cut with factor Xa; E. coli BL21(DE3)/Rosetta; homotrimer; primers encode N-terminus AGAAPAGG and C-terminus PQEHAH
What is called Km is the substrate concentration at which the rate is half of its maximum. As a reminder, the kcat is the maximal rate divided by the concentration of active sites. For orientation: kcat/Km means the second-order rate constant that governs catalysis at low substrate concentration. For the protein B1, in the data set “purified protein [1]” (pH 4.0, 30 °C), the Km turned out to be 360 ± 70 µM, the kcat is 15 ± 1 s⁻¹ and the kcat/Km was found to be 42000 M⁻¹ s⁻¹. Moreover, in “purified protein [2]” (pH 9.0, 30 °C), the Michaelis-Menten constant (Km) was found to be 320 ± 80 µM, the catalytic constant (kcat) amounted to 0.35 ± 0.02 s⁻¹ and the kcat/Km was 1090 M⁻¹ s⁻¹.

B2: SgfSL (SgfSLwt) (Streptomyces griseoflavus; H165A/M199G) (protein)
chain: B1 chain with H126A, M160G
notes: as for B1
For B2, in “purified protein [1]” (pH 3.5, 30 °C), the Michaelis-Menten constant (Km) was 90 ± 10 µM, the turnover number (kcat) is 9 s⁻¹ and the kcat/Km worked out at 95000 M⁻¹ s⁻¹. Further, in the data set “purified protein [2]” (pH 6.5, 30 °C), the Km worked out at 280 ± 50 µM, the kcat came out at 0.31 ± 0.01 s⁻¹ and the catalytic efficiency (kcat/Km) stood at 1110 M⁻¹ s⁻¹.

B3: SgfSL (SgfSLwt) (Streptomyces griseoflavus; M199A) (protein)
chain: B1 chain with M160A
notes: as for B1
As for B3, in “purified protein [1]” (pH 4.0, 30 °C), the Km amounted to 320 ± 50 µM, the turnover number (kcat) is 33 ± 2 s⁻¹ and the kcat/Km came to 102000 M⁻¹ s⁻¹. Moreover, in the data set “purified protein [2]” (pH 8.0, 30 °C), the Km worked out at 830 ± 80 µM, the turnover number (kcat) is 1.3 ± 0.05 s⁻¹ and the catalytic efficiency (kcat/Km) amounted to 1550 M⁻¹ s⁻¹.

B4: SgfSL (SgfSLwt) (Streptomyces griseoflavus; Y230A) (protein)
chain: B1 chain with Y191A
notes: as for B1
As for B4, in the data set “purified protein [1]” (pH 3.5, 30 °C), the Km came to 170 ± 40 µM, the catalytic constant (kcat) came to 29 ± 3 s⁻¹ and the kcat/Km is 169000 M⁻¹ s⁻¹. In addition, in “purified protein [2]” (pH 8.5, 30 °C), the Km amounted to 760 ± 30 µM, the catalytic constant (kcat) is 1.68 ± 0.07 s⁻¹ and the specificity constant (kcat/Km) was 2220 M⁻¹ s⁻¹.

B5: SgfSL (SgfSLwt) (Streptomyces griseoflavus; M199G) (protein)
chain: B1 chain with M160G
notes: as for B1
In the case of B5, in the data set “purified protein [1]” (pH 4.0, 30 °C), the Km was determined as 200 ± 60 µM, the kcat came to 45 ± 7 s⁻¹ and the specificity constant (kcat/Km) was found to be 226000 M⁻¹ s⁻¹. In the data set “purified protein [2]” (pH 8.0, 30 °C), the Km came to 670 ± 120 µM, the turnover number (kcat) turned out to be 3.39 ± 0.17 s⁻¹ and the kcat/Km worked out at 5070 M⁻¹ s⁻¹.

B6: SgfSL (SgfSLwt) (Streptomyces griseoflavus; M199G/R240H) (protein)
chain: B1 chain with M160G, R201H
notes: as for B1
As to B6, in the data set “purified protein [1]” (pH 3.5, 30 °C), the Km came out at 100 ± 15 µM, the kcat came out at 20 ± 1 s⁻¹ and the kcat/Km is 203000 M⁻¹ s⁻¹. Further, in “purified protein [2]” (pH 8.5, 30 °C), the Km worked out at 250 ± 20 µM, the kcat came to 4.18 ± 0.09 s⁻¹ and the kcat/Km was 16500 M⁻¹ s⁻¹.
